Laboratory results: the nanobody polyreactivity screen of Harvey et al. (2022)

Assay: yeast display, Sf9 membrane polyspecificity reagent, FACS + sequencing; frameworks hold sequencing errors
In short: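 Galactose induction of a Saccharomyces cerevisiae BJ5465 synthetic nanobody display library ran 36–48 hours. The cells were then stained for 1 hour at 4 °C with 10% biotinylated, detergent-solubilized Sf9 membrane reagent, pulled down on streptavidin microbeads and FACS-sorted into low and high (top ~1%) gates on expression and reagent-binding fluorescence. Labels for polyreactivity follow the gate of origin.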

Q: For “QVQLVESGGGIVQAGGSLRLSCAASGRTFAVYAMGWYRQAPGKERELVAAINSSGRTDYADSVKGRFTISRDNAKNTVYLQMNSLKPEDTAVYYCNADFYFRRYRYRYNYWGQGTQVTVSS”, which “polyreactivity (PSR sort gate)” value is on record?
A: high polyreactivity

Q: Which “polyreactivity (PSR sort gate)” value does the source give for “QVQLVESGGGLVQAGGSLRLSCAASGSTFLYYGMGWYRQAPGKERALVAGIDGTGSSTYYADSVKGRFTISRDNAKNTVYLQMNSLKPEDTAVYYCAKRYPRYRSRYYYWGQGTQVTVSS” here?
A: low polyreactivity

Q: With “QVQLLESGGVLVQAGGSLRLSCAASGFTFWYYAMGWYRQAPGKQRELVATITWNVGSTYYADSVKGRFTISRDNAKNTVYIQMNTLKPEDTAVYYCNKSYSRSSYWQYYYWGQGTQVTVSS” as the sequence, how does the “polyreactivity (PSR sort gate)” value read?
A: low polyreactivity

Q: For “QVQLVESGGGLVQAGGSLRLSCAASGRIVYRYAMGWYRQAPGKERELVAAISSGGSTYYADSVKGRFTISRDNAKNTVYLQMNSLKPEDTAVYYCAATWGRGTYYLYYYWGQGTQVTGSS”, which “polyreactivity (PSR sort gate)” value is on record?
A: high polyreactivity

Q: With “QVQLVVSGGGLVQAGGSLRLSCAASGSIFTRYAMGWYRQAPGKERELVAAISSGGSTYYADSVKGRFTISRDNAKNTVYLQMNSLKPEDTAVYYCAKDSGSYRVGIYEPFPYGYWGQGTQVTVSS” as the sequence, how does the “polyreactivity (PSR sort gate)” value read?
A: low polyreactivity

Q: For “QVQLVESGGGLVQAGGSLRLSCAASGSTFKWYAMGWYRQAPGKERELVAAITRGGSTSYADSVKGRFTISLDNAKNTVYLQMNSLKPEDTAVYYCAADYHYTKSMYYWGQGTQVTVSS”, which “polyreactivity (PSR sort gate)” value is on record?
A: low polyreactivity

Q: Which “polyreactivity (PSR sort gate)” value does the source give for “QVQLVESGGGLVQAGGSLRLSCAASGITFQWNALGWYRQAPGTERELVAAITRSGGRTYYADSVKGRFTISRDNAKNTVYLQMYSLKPEDTAVYYCAARYWDNPYWFDYWGQGTQVTVSS” here?
A: high polyreactivity

Q: With “QVQLVESGGGLVQAGGSLRLSCAASGRIFKKNAMGWYRQAPGKERELVAAIRGSGDSTFYADSVKGRFTISRDNAKNTVYLQMNSLKPEDTAVYYCAAGDVPRRIYLVYVGYLLDYWGQGTQVTVSS” as the sequence, how does the “polyreactivity (PSR sort gate)” value read?
A: low polyreactivity

Q: For “QVQLVESGGGLVQAGGSLRLSCAASGIIFDYYDMGWYRQAPGKERELVAAISAGGGSTYYADSVKGRFTISRDNAKNTVYLQMNSLKPEDTAVYYCAALYWRSTVGAYSTYEYDYWGQGTQVTVSS”, which “polyreactivity (PSR sort gate)” value is on record?
A: high polyreactivity

Q: Which “polyreactivity (PSR sort gate)” value does the source give for “QVQLVESGGGLVQAGGSLRLSCAASGSTFSRYAMGWYRQAPGKERELVAAITASGGSTYYADSVKGRFTISRDNAKNTVYLQMNRLKPEDTAVYYCAASYQVRYDYWGQGTQVTVSS” here?
A: high polyreactivity

Q: With “QVQLEESVGGLVQAGGSLRLSCAASGRIFTPYAMGWYRQAPGKERELVATISRGTSTSYADSVKGRFTISRDNAKNTVYLQMNSLKPEDTAVYYCAALGPRTTFRYTSYYYWGQGTQVTVSS” as the sequence, how does the “polyreactivity (PSR sort gate)” value read?
A: high polyreactivity

Q: With “QVQLVESGGGLVQAAGSLRLICAASGLTFGANDMGWSRQAPGTERELVAAIDWSGGSTFFADSVKGRFTISRDNAKNTVYLQMNTLKPEDTAVYYCAALGFGYPYPEYDSWGQGTQVTVSA” as the sequence, how does the “polyreactivity (PSR sort gate)” value read?
A: low polyreactivity

Q: With “QVQLVESGGGLVQAGGSLRLSCAASGSIFWKYAMGWYRQAPGKERELVAAISRSSSTTYYADSVKGRFTISRDNAKNTVYLQMNSLKPEDTAVYYCAAYYRSRVSDDYWGQGTQVTVSS” as the sequence, how does the “polyreactivity (PSR sort gate)” value read?
A: high polyreactivity

Q: With “QVQLVESGGGVVQAGGSLRLSSAASGRIIRYYTMGWYRQAPGKERELVAAIRTYGGRTYYADSVKGRFTISRDNAKNSVYLQMNSLKPEDTAVYYCAADGGRPRYDSWGQGTQVTVSS” as the sequence, how does the “polyreactivity (PSR sort gate)” value read?
A: high polyreactivity

Q: Which “polyreactivity (PSR sort gate)” value does the source give for “QVQLVESGGGLVQAGGSLRLSCAASGRTFRVYAMGWYRQAPGKERELVAAIRSGGNTNYADSVKGRFTISRDNAKNTVYLQMNSLKPEDTAVYYCAATTYVVASRYVGTLGDDYWGQGTQVTVSS” here?
A: high polyreactivity

Q: Which “polyreactivity (PSR sort gate)” value does the source give for “QVQLVESGGGLVQAGGSLRLSCAASGSIFWGYAMGWYRQAPGKERELVAVITWSVGRTYYADSVKGRFTISRDNAKNTVYLQMNSLKPEDTAVYYCNAKSWYGGSYYRYDYWGQGTQVTVSS” here?
A: low polyreactivity

Q: For “QVQLVESGGGLVQAGGSLRLSSAASGLIFYSYTMGWNRQAPGKERELVAVISRSGTSTYYADSVKGRFTISRDNAKNTVYLQMNSLKPEDTSVYYCAALTRSGPYAYEYWGQGTQVTVSS”, which “polyreactivity (PSR sort gate)” value is on record?
A: high polyreactivity

Q: With “QVQLVESGGGLVQAGGSLRLSCAASGFIFPHYTMGWYRPAPGKERELVAAISSSGGSTYYADSVKGRFTISRDNANNTVYLQMNSLKPEDTAVYYCAADWSITYGDGGYWGQGTQVTVSS” as the sequence, how does the “polyreactivity (PSR sort gate)” value read?
A: low polyreactivity

Q: Which “polyreactivity (PSR sort gate)” value does the source give for “QVQLVESGGGLVQAGGSLRLSCAASGRTFRRYAMGWYRQAPGKERELVAAITWGAGSTRYADSVKGRFTISRDNAKNTVYLQMNSLKPEDTAVYYCAAENTRAYGMYYWGQGTQVTVSS” here?
A: high polyreactivity

Q: Which “polyreactivity (PSR sort gate)” value does the source give for “QVQLVESGGGLVQAGGSLRLSCAASGSTFVRYAMGWYRQAPGKERELVAAISKSGGSTYYADSVKGRFTISRDNAKNTVYLQMNSLKPEDTAVYFCNADVYKNSKFRIMGYWGQGTQVTVSS” here?
A: low polyreactivity

Q: Which “polyreactivity (PSR sort gate)” value does the source give for “QVQLVESGGGLVQAGGSLRLSCAASGYTFWAYAMGWYRQAPGKERELVAAITYRGGSTYYADSVKGRFTISRDNAKNTVYLQMNSLKPEDTAVYYCAAEGYYTGYWDLYDYWGQGTQVTVSS” here?
A: high polyreactivity

Q: With “QVQLVESGGGIVQAGGSLRLSCAASGSTFGFYAMGWYRQAPGKERELVAAISSAARTYYADSVKGRFTISRDNAMNTVYLQMNSMKPEDTAVYYCSAEAYHWTSYIGYGGVYYWGQGTKVTVSS” as the sequence, how does the “polyreactivity (PSR sort gate)” value read?
A: low polyreactivity

Q: Which “polyreactivity (PSR sort gate)” value does the source give for “QVHLVESGGGLVQAGGSLRLSCAASGSTLFPYAMGWYRQAPGKERELVAAISSRGGRTYYADSVKGRFTISRDNAKNTVYLQMNSLKPEVTAVYYCAAGDDYWGQGTEVTVSS” here?
A: high polyreactivity

Q: For “QVQLVESGGGLVQAGGSLRLSCAASGRTFVYNAMGWYRQAPGKERQLVAGITNGGSTNYADSVKGRFTISRDNAKNTVYLQMNSLKPEDTAVYYCAADSRVYPYYFGHFGFWGQGTQVTVSS”, which “polyreactivity (PSR sort gate)” value is on record?
A: low polyreactivity

Q: With “HVQLVESGGGLVQAGGSLRLSCAASGRIFYIYAMGWYRQAPGKERELVAGIRSRGGSTYYADSVKGRFTISRDNAKNTVYLQMNSLKPEDTAVYYCTTEIWGVNSSGYDYWGQGTQVTVSS” as the sequence, how does the “polyreactivity (PSR sort gate)” value read?
A: low polyreactivity

Q: With “QDQLVESGGGLVQAGGSLRLSCAASGRTFGRYAMGWYRQAPGKERELVASISYSTDSTYYADSVKGRFTISRDNAKNTVYLQMNSLKPEDTAVYYCATDSVNVGSYVGDKHDYWGQGTQVTVSS” as the sequence, how does the “polyreactivity (PSR sort gate)” value read?
A: low polyreactivity

Q: Which “polyreactivity (PSR sort gate)” value does the source give for “QVQLVESGGVLVQAGGSLRLSCAASGSTFSVNVMGWSRQAPGKERELVAAINSGGSTDYADSVKGRLTISRDNAKNTVYLQMNSLKPEYTAVYYCNAYDIVIYDYWGQGTQVTVSS” here?
A: low polyreactivity

Q: For “QVQLVESGGGLVQAGGSLRLSCAASGRTFPYYAMGWYRQAPGKERELVAAISSSGGSTYYADSVKGRFTISRDNAKNTVNLQMNSLKPEDTAVYYCAARAPYSYSGYGYWGQGTQVTVSS”, which “polyreactivity (PSR sort gate)” value is on record?
A: high polyreactivity

Q: Which “polyreactivity (PSR sort gate)” value does the source give for “QVQLVESGGGLVQAGGSLRLTCAASGFIFTYNAMGWYRQAPGKERELVAAISWSGSRTNYADTVKGRFTISRDNAKHTVYLQMNSLKPEDTAVFYCAAKYKYRTYNYWGQGTQVTVSS” here?
A: high polyreactivity

Q: For “QVQLVESGGGLVQAGGSLRLSCAASGIIFYLNAMGWYRQAPGKERELVAAISNGTSTNYADSVKGRFTISRDNAKNTVYLQMNSLKPEDTAVFYCAADDLRYNSRSSNYRGDYWGQGTQVTVSS”, which “polyreactivity (PSR sort gate)” value is on record?
A: low polyreactivity

Q: For “QVQLVESGGGLVQAGGSHRLSCAASGFIFSYYAKGRYRQAPGKERELVAAISSSGGTTYADSVKGRFTISRDNAKNTVYLHMNSLKPEDTAVYYCARVQYWFYKPMYYWGQGTQVTVSS”, which “polyreactivity (PSR sort gate)” value is on record?
A: high polyreactivity

Q: With “QVQLVESGGGLVQAGGSLRLSCAASGIIFTQNGMGWYRQAPGKERELVAAISWSAGGTYYADSVKGRFTISRYNAKNTVLLQMNSLKPEDTAVYYCNARVFNVFREFNSWGQGTQVTVSS” as the sequence, how does the “polyreactivity (PSR sort gate)” value read?
A: low polyreactivity

Q: Which “polyreactivity (PSR sort gate)” value does the source give for “QVQLVESGGGLVQAGGSLRLSCAASGFIFSNYAMGWYRQEPGKERELVAAISWSGTLTNYADSVKGRFTISRDNAKNTVYLQMNSLKPEDTAVYYCAAYGDYLYDYWGQGTQVTVSS” here?
A: low polyreactivity

Q: With “QVQLVESGGGLVQAGGSLRLSCAASGSTFSRYAMGWYRQAPGKERELVAAISSSGGSTYYADSVKGRFTISRDTAKNTVYLQMNSLKPEDTAVYYCAVSHKYYGRRDYWGQGTQVTVSS” as the sequence, how does the “polyreactivity (PSR sort gate)” value read?
A: high polyreactivity

Q: For “QVQLVESGGGLVQAGGSLRLSCAASGLTFGVYAMGWSRQAPGKERELVAAIDLSDDITYYADSVKGRFTISRDNAKNTVYLQMNSLKPEDTAVYYSAAEYYLYSTYTVSYWKYDYWGQGTQVTVSS”, which “polyreactivity (PSR sort gate)” value is on record?
A: high polyreactivity

Q: With “QVQLVESGGGLVQAGGSLRLSCAASGRIFSVYAMVWYRQAPGKEREFVAAITKGGVGTYYADSVKGRFTISRDNAKNTVYLQMNSLKPEDTAVYYFAARHYYGADRYYSWGQGTQVTVSS” as the sequence, how does the “polyreactivity (PSR sort gate)” value read?
A: high polyreactivity

Q: Which “polyreactivity (PSR sort gate)” value does the source give for “QFQLVESGGGLVHAGGRLRLSCAASGITFVTYAMGWYRQAPGKERELVAAISRSGGRPYYADSVKGRFTISRDNATNTDYLQMNSLKPEDTAVYYCAAERKNKYDYWGQGTQVTVSS” here?
A: high polyreactivity

Q: For “QVQLVDSGGGLVQAGGSLRLSCAASGSTFVYYAMGWYRQAPGKERELVAAITWNGGSTYYADSVKGRFTISRDNAKNTVYLQMNSLKPEDTAVYYCNAEYPVYFEGYPYYWDYWGDSWGQGTQVTVSS”, which “polyreactivity (PSR sort gate)” value is on record?
A: high polyreactivity

Q: With “QVQLVESGGGLVQAGGSLRLSCAASGRTFYQYAMGWYRQAPGKERELVAAITTSGGSTYYADSVKGRFTISRDNAKNTVYLQMNSLKPEDTAVYYCAAPYTGYRERGSYKSDYWGQGTQVTVSS” as the sequence, how does the “polyreactivity (PSR sort gate)” value read?
A: low polyreactivity

Q: Which “polyreactivity (PSR sort gate)” value does the source give for “QVQLVESGGGLVQAGGRLRLSCATSGYIFYDYDMGWYRQAPGKERELVAAIRRSTGTTYYADSVKGRFTISRDNEKNTVYLLMISLKPESTAVYYCAALFRPRVHRYDYWGQGTQVTVSS” here?
A: low polyreactivity

Q: Which “polyreactivity (PSR sort gate)” value does the source give for “QVQLVESGGGLVQAGGSLRLSCAASGSTSPINAMGWYRQAPGKERELVAVISSSGGLTYYADSVKGRFTISRDNAKNTVYLQMNSLKPEDTAVYYCAKRFSRRQPDYDYGGQGTQVTVSS” here?
A: high polyreactivity

Q: Which “polyreactivity (PSR sort gate)” value does the source give for “QVQLVESGGGLVQAGGSLRLSCAASGFTFTWYAMGWYRQAPGKQRELVASISRSGGSTYYAESVKGRFTISRDNAKNTVYLQMNSRKPEDTAVYYCAAVSRTRSYDYWGQGTQVTVSS” here?
A: high polyreactivity

Q: For “QVQLVESGGGLVQAGGSLRLSCAASGRTFDRNAMGWYRQAPGKERELVAAISRGGTTYYADSVKGRFTISRDNAKNTVYLQMNSLKPEDTAVYYCARVGRYRYEWGQGTQVTVSS”, which “polyreactivity (PSR sort gate)” value is on record?
A: high polyreactivity
